Reference: the DeepSol protein solubility set

Assay: soluble on expression in E. coli; label from the status in PepcDB or PDB records

Sequence	soluble on expression in E. coli
MSLRVLFLRPDNEDNELNEKLMILRKNGIEVLNIPIFKIKCVSYSLPTYDYEALAFTSRNSVICFKDRTLIKNVHKIYAIGEETAELLMKMYNVNPITPERFTSIELAKRILEDKVNSILSIRSRKASEDMRNILNGKIKYDEIYVYDSEIIRDNINEISKILTECEVDAIAFTSSLMAKLIGPFIRGKCNIIIFSIGPMTTETLKRVNNKVKIIESKTHSIKGIIETILVEMKRNGRDEGHHHHHH	soluble
MLFLDSQFVYGAGAQLFNHFCYFFGTQQKFPPFLSIDENQYIIFIATEQFIREIKLLIALLLNENTAKYFQKALLCLKERKLVKIAKVGNVIEFKNGLTGVVEKVNENSVIVDVTIMDNYRDLELDSLTVVNHKNYKIIRDSYLEHHHHHH	soluble
MSLENPYQLVEDIEGIGFKRADNLAEQIGIAADSPRRIRAAILHQIFQHAVQTGDTYVPAETLLQQTIRILETSRPIEIQPDQVATVIIQLVEEGKIQQEETNLYENSLYFSEWGIGNSIQRLLSRKKEIHYPEKEVQKNIRRIEKIFGIQYGPSQEQAIAEAIRSPLFILTGGPGTGKTTVINGIVNLFAELNGLELDPSKYTQEIFPILLAAPTGRAAKRMNETTGLPASTIHRLLGLNGREKTPSVSTKELEGGLLIVDEMSMVDTWLANTLFKAIPTNMQVILVGDKDQLPSVGPGQVLHDLLEIEQIPKMELNQIYRQGDGSSIIPLAHEIKEGRLPKDFTKNQKDRSYFRSDAYQIEPLISKIVEKAKNKGFRAQDIQVLAPMYRGPAGIDALNKMMQEIFNPGKPGKKEVHWNDTVYRIGDKVLQLVNTPELNVFNGDMGEITGIILAKDSEDKVDELVIQFDANEVTYKRNEWNKITLSYCCSIHKSQGSEFKMVILPMVHQYQRMLQRNLLYTAVTRSKELLILLGEEQAYVTCVANESASRMTTLKSRIMDNDKMNEGHHHHHH	soluble
MAHHHHHHMPGIKIEEVISTTKRQRVAAHSHVKGLGLDADGSAKPSADGFVGQVKAREAAGIVVELTRSKKMAGRALLFAGPPGTGKTALALGIAKELGPKVPFCPMVGSEVYSAEVKKTEVLMENFRRAIGLRIKEQKEVYEGEVTELRAEETDNPLGGYGKSIAHVIVTLKSVKGSKQLKLDAAIYESLEKEKVSVGDVIYIEASTGAVKRVGRSDAYIGDHDLEADEYVPLPKGDVHKKKEIIQDVTLHDLDSANAKPNQGQDALSIVNSLMKQKKTEITEKLRHEINKVVNKYIDQGVAELVPGVLFIDEVHMLDIECFTFLNKALESTLAPVVIFATNRGSCRIRGTDIRSPHGIPTDLLDRLLIVRTTNYSIEEIVSIVDIRSQVEGVKVSDASLELLGQIGERTSLRYVVQLLTPALIIAETNGRTVIEAEDVMLVDGLFKDAKASAQLLHEHADEYVYQ	not soluble
MSLSNDTVSGPSMQPSFENGQRLISVRHAQIKRGEVVIVKAPDEPGALYIKRVIGMPGEKIVSKNNQIYINNKKLSQPWLTQGKKMIDAGSDTFYSATQNFTMKSLARSRQFQQYYTKSQLNYINKYNRIPKETYFVMGDHRSVSKDSRYIGTIKRKNVVGVVKLRYWPLNEFKIYEGHHHHHH	not soluble
MSLEDTGIFGYSRAGSINGIEYPYVINVKTDFVENDGKLNFMGEEIDRMLIYPSQIKQEIVETESFVIIPNGAELIRRPKNLVSIIMNVHEKYGFSKLIYLSGLPDPYSIPALVYLGVSFFDDAYFRIEGINGLQFTQYGIRRTNEDQTENNMNFVRSMLNVIKDSIMNGTLRDIVEKNLVSSKAAEMIRIADYSYYEEYEKIFPSRTPYIKANTIEDLYRPDIVRYREYVANLYEKPDLDVAVILPCSAKKPYSKSKSHQKVINSLSDLRKYIHEIIVTSPLGVVPRDLEETYPAMFYDIPVIGLWYEDEKVMMKRMLRSYMSRNKYRKVIAFVPDDLEFITDSIPYDTEFIEFKSSNLSKLRQTVEKEKFASKSIDQKKAKYESVLKYQFGSWILPLINGYSLRRNYNQDMIVKDGKILFVYNERLGKFTINKASAEMFVKNGRFLVEIDDFKPTSNVYAMGVRDATDDIRQEDEVVLVHSGEIRGVGIAKMNARAMMELKKGIAVKVREGHHHHHH	soluble
MSLLKQRFVLDTTALTDLQTREVMGYASLCEGMKAILDLIADARLHFGISCYVPYPSVYKEMYEFASRNGCDREVVAKIDTWLVKKSPDRYRVSVTSQIFHEYVAYMRERINRGMGVAEDAIWEAATECLFMENPQNKKKEYKEEVEREVIGGIIGKFRNKYRAALRYGILDSAPDIDVLILAKELDAAVIASDYGIEKWAEQLGVRFVPANVFPMMIQEYLKHLPENENEPEYENRDKSKEGSSGEIEFIEGHHHHHH	soluble
